According to IntAct's records for PubMed 31515488:

B1: Zinc finger CCCH-type with G patch domain-containing protein (Homo sapiens), Q8N5A5 (parent)
chain: MDEESLESALQTYRAQLQQVELALGAGLDSSEQADLRQLQGDLKELIELTEASLVSVRKSSLLAALDEERPGRQEDAEYQAFREAITEAVEAPAAARGSGSETVPKAEAGPESAAGGQEEEEGEDEEELSGTKVSAPYYSSWGTLEYHNAMVVGTEEAEDGSAGVRVLYLYPTHKSLKPCPFFLEGKCRFKENCRFSHGQVVSLDELRPFQDPDLSSLQAGSACLAKHQDGLWHAARITDVDNGYYTVKFDSLLLREAVVEGDGILPPLRTEATESDSDSDGTGDSSYARVVGSDAVDSAQSSALCPSLAVVGSDAVDSGTCSSAFAGWEVHTRGIGSRLLTKMGYEFGKGLGRHAEGRVEPIHAVVLPRGKSLDQCVETLQKQTRVGKAGTNKPPRCRGRGARPGGRPAPRNVFDFLNEKLQGQAPGALEAGAAPAGRRSKDMYHASKSAKRALSLRLFQTEEKIERTQRDIRSIQEALARNAGRHSVASAQLQEKLAGAQRQLGQLRAQEAGLQQEQRKADTHKKMTEF
partner: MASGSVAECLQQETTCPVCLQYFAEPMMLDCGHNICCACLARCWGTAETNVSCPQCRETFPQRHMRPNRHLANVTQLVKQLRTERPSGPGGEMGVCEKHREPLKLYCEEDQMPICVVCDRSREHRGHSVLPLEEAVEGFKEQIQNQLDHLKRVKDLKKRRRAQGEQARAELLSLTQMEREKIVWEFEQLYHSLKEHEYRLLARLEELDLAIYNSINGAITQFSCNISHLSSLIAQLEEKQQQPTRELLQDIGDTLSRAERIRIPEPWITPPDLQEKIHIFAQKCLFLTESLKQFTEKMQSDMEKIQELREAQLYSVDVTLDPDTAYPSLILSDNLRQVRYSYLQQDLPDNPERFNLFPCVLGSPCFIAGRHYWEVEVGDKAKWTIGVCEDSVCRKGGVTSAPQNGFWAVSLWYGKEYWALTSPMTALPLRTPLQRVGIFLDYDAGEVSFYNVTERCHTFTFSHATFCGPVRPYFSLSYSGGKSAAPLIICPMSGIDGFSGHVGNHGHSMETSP
B2: Neutrophil cytosol factor 2 (Homo sapiens), P19878 (parent)
chain: MSLVEAISLWNEGVLAADKKDWKGALDAFSAVQDPHSRICFNIGCMYTILKNMTEAEKAFTRSINRDKHLAVAYFQRGMLYYQTEKYDLAIKDLKEALIQLRGNQLIDYKILGLQFKLFACEVLYNIAFMYAKKEEWKKAEEQLALATSMKSEPRHSKIDKAMECVWKQKLYEPVVIPVGKLFRPNERQVAQLAKKDYLGKATVVASVVDQDSFSGFAPLQPQAAEPPPRPKTPEIFRALEGEAHRVLFGFVPETKEELQVMPGNIVFVLKKGNDNWATVMFNGQKGLVPCNYLEPVELRIHPQQQPQEESSPQSDIPAPPSSKAPGRPQLSPGQKQKEEPKEVKLSVPMPYTLKVHYKYTVVMKTQPGLPYSQVRDMVSKKLELRLEHTKLSYRPRDSNELVPLSEDSMKDAWGQVKNYCLTLWCENTVGDQGFPDEPKESEKADANNQTTEPQLKKGSQVEALFSYEATQPEDLEFQEGDIILVLSKVNEEWLEGECKGKVGIFPKVFVEDCATTDLESTRREV
B3: Homeobox protein VENTX (Homo sapiens), O95231 (parent)
chain: MRLSSSPPRGPQQLSSFGSVDWLSQSSCSGPTHTPRPADFSLGSLPGPGQTSGAREPPQAVSIKEAAGSSNLPAPERTMAGLSKEPNTLRAPRVRTAFTMEQVRTLEGVFQHHQYLSPLERKRLAREMQLSEVQIKTWFQNRRMKHKRQMQDPQLHSPFSGSLHAPPAFYSTSSGLANGLQLLCPWAPLSGPQALMLPPGSFWGLCQVAQEALASAGASCCGQPLASHPPTPGRPSLGPALSTGPRGLCAMPQTGDAF
partner: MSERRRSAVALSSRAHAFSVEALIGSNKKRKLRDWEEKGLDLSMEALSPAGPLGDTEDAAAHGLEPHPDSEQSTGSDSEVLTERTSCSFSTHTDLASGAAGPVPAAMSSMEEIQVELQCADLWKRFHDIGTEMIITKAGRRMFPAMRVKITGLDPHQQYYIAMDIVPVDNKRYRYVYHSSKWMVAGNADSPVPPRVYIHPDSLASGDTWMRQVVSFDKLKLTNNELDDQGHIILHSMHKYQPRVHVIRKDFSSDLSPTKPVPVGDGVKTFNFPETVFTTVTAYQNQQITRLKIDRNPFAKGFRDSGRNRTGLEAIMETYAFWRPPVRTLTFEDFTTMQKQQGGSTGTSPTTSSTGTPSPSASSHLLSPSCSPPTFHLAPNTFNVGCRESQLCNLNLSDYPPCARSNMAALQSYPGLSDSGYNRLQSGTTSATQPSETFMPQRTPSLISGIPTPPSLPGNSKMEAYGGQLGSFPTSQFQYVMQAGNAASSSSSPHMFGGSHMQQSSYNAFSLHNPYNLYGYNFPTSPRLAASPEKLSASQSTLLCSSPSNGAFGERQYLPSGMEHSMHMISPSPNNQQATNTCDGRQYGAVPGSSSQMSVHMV
B4: Guanine nucleotide exchange factor for Rab-3A (Homo sapiens), Q8TBN0 (parent)
chain: MWSGPPQPDQGLPPPLAAVPVPWKSTDPCQGHRESPGALVETSAGEEAQGQEGPAAAQLDVLRLRSSSMEIREKGSEFLKEELHRAQKELKLKDEECERLSKVREQLEQELEELTASLFEEAHKMVREANMKQAASEKQLKEARGKIDMLQAEVTALKTLVITSTPASPNRELHPQLLSPTKAGPRKGHSRHKSTSSTLCPAVCPAAGHTLTPDREGKEVDTILFAEFQAWRESPTLDKTCPFLERVYREDVGPCLDFTMQELSVLVRAAVEDNTLTIEPVASQTLPTVKVAEVDCSSTNTCALSGLTRTCRHRIRLGDSKSHYYISPSSRARITAVCNFFTYIRYIQQGLVRQDAEPMFWEIMRLRKEMSLAKLGFFPQEA

Variants of: B1
Details: with tri27_human TRIM27, P14373

| Variant | effect of a mutation on the interaction |
| --- | --- |
| S61R | with no effect |

Variants of: B2
Details: with kifa3_human KIFAP3, Q92845
Chain of kifa3_human KIFAP3, Q92845 (Q92845 whole entry): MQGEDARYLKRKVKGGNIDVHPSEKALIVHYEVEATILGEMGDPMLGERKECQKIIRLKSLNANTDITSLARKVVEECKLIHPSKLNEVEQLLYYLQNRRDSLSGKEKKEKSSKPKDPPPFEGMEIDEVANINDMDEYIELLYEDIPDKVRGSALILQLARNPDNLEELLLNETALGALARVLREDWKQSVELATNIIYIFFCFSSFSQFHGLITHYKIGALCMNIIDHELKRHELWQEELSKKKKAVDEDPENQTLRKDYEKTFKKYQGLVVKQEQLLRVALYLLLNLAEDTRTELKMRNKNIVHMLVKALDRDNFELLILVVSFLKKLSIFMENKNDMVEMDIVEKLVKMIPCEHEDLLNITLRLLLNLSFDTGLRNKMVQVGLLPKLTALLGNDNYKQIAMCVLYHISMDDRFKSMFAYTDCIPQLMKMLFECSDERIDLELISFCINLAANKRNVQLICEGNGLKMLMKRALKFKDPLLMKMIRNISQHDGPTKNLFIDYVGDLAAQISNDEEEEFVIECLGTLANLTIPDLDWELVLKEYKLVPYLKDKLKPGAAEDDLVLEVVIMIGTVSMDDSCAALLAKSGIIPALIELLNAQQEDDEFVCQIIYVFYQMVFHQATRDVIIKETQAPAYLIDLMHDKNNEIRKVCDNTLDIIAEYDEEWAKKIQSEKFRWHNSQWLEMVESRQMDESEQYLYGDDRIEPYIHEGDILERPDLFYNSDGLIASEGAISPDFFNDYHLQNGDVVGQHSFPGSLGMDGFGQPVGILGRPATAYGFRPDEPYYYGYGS

| Variant | effect of a mutation on the interaction |
| --- | --- |
| V297A | with no effect |

Variants of: B3
Details: with tbx15_human TBX15, Q96SF7

| Variant | effect of a mutation on the interaction |
| --- | --- |
| L42P | with no effect |
| M251V | with no effect |
| A226E | with no effect |

Variants of: B4
Details: with rb11a_human RAB11A

| Variant | effect of a mutation on the interaction |
| --- | --- |
| H323Y | with no effect |
